From paper PMC7501274

Columns and labels:
[1] = biological target: CsaC-H228A (Neisseria meningitidis serogroup A); experiment: crystal structure; sitting drop, PEG200, HEPES pH 7.0/7.6; two protein molecules in the asymmetric unit, tetrameric assembly in the crystal packing; apo, CPS-DP4-soaked (wild type) and acetyl-CoA-soaked (H228A) crystals
[2] = biological target: capsule O-acetyltransferase CsaC, wild type (Neisseria meningitidis serogroup A); experiment: as above
[3] = biological target: capsule O-acetyltransferase CsaC, wild type (Neisseria meningitidis serogroup A); experiment: AUC; sedimentation velocity (3.0 to 40.9 µM CsaC, 35,000 rpm) and sedimentation equilibrium (9.1 and 40.9 µM CsaC, single species model), 20 °C, 50 mM HEPES pH 7.0, 0.1 M NaCl, 5 mM MgCl2, 1 mM EDTA

## CsaC-H228A (enzyme)
[1]
  stoichiometry N: 4

## capsule O-acetyltransferase CsaC, wild type (enzyme)
[2]
  stoichiometry N: 4
[3]
  stoichiometry N: 4
